Data as given in patent US20160139118A1, “NOVEL ASSAY” (GLAXOSMITHKLINE INTELLECTUAL PROPERTY (NO.2) LIMITED, priority 2013, published 2016).
One block for each molecule: values may come before it.

Assays:
[1] = molecular target: Complement C3b (Complement Technology) (human) (UniProt P01024); test: cell-based or functional assay
[2] = molecular target: Complement C3b (Complement Technology), P01024
[3] = molecular target: T1, C3b (Homo sapiens, UniProt P01024); test: CFI dose response in cofactor assay (conversion of C3b into iC3b); assay type: biochemical
T1 construct: Factor I, Factor H, C3b, and iC3b proteins were purchased; purchased Complement Technology Inc (Tyler, Tex.)
Description: A mixture of CFH (10-80 μg/mL) and C3b (80-150 μg/mL) was added into the tubes containing the CFI or BAM/CFI mixture. After a 30 minute-incubation at 37° C., the reaction mixtures were directly diluted into Assay Buffer and used for ELISA detection of iC3b. The detailed procedures other than indicated below were performed following the instruction provided with the ELISA kit. The diluted reaction mixtures and standards were applied to the 8-well strips at 60 μL per well and incubated at RT for 30 min. After washing 5 times in a plate washer with an in house-made washing buffer (10 mM Tris, 60 mM NaCl, 0.1% Tween 20, pH7.2), the 8-well strips were loaded with 50 μL of the HRP-anti-human iC3b conjugates per well and incubated at RT for 30 min. At the end of incubation, the 8-well strips were washed in the plate washer 5 times and incubated with 100 μL of the HRP substrates provided in the kit for additional 30 min. The reaction was stopped by addition of 50 μL Stop Buffer. The absorption at 405 nm was measured within 10 minutes. […] To answer these questions, a CFI dose response study was conducted where CFI was tested in a range of 10 ng/mL to 30 μg/mL in the presence or absence of 200 μM BAM1-42 (Lot 2, aged for 7 days without sonication) in the cofactor assay. […]

[4] = molecular target: T1, C3b; test: Cofactor assay of bioactivity of purified and recombinant CFI; assay type: biochemical; details: for estimated EC50 of CFI (95% limits in parentheses): three experiments in triplicate, CFH and C3b, 37° C. 1 hr
Description: The bioactivity measurements were conducted in triplicate and run on three occasions. Both CFI stock solutions were diluted in a 1/3 log series into 8 substock solutions starting at […] CFI. To maintain the CFI bioactivity in low concentration, 10 μg/mL CFH was used. Cofactor assays were set up by mixing […] of 2×CFI substock solutions with […] of CFH and C3b 2× mixture at a final concentration of […] for each reaction. The reaction mixtures were incubated at 37° C. for 1 hr, then the iC3b production in reactions was evaluated by a specific ELISA.
In the assay, 1 mU of CFI bioactivity is defined as the inverse of the amount of CFI that generates half of the maximal concentration of iC3b that can be produced (EC50). To obtain CFI bioactivity of a sample the following calculation is applied: 1/(EC50 of CFI in μg). This equation will result in CFI bioactivity levels expressed as U/μg of CFI. […] The model fitted to the data also predicted the EC50 recombinant to purified ratio.
This value provides the amount of CFI in ng that generates ½ the maximal amount of iC3b. Dividing these amounts by 1000 we convert the numbers to μg.

Molecule: Complement factor I, purified human serum protein (Complement Technology) (from UniProt P05156 19-583) (enzyme)
CFI bioactivity (inverse of EC50 in µg) [1]: 3070 U/µg of CFI | EC50 of CFI in cofactor assay (conversion of C3b into iC3b, with CFH), PBS control [1]: 0.686 µg/mL | EC50 of CFI in cofactor assay (iC3b generation, 80 CFH and C3b, 1 hr), three experiments [1]: 0.0326 µg/mL

B1: Complement factor I, purified human serum protein (Complement Technology) (protein)
chain: KVTYTSQEDLVEKKCLAKKYTHLSCDKVFCQPWQRCIEGTCVCKLPYQCPKNGTAVCATNRRSFPTYCQQKSLECLHPGTKFLNNGTCTAEGKFSVSLKHGNTDSEGIVEVKLVDQDKTMFICKSSWSMREANVACLDLGFQQGADTQRRFKLSDLSINSTECLHVHCRGLETSLAECTFTKRRTMGYQDFADVVCYTQKADSPMDDFFQCVNGKYISQMKACDGINDCGDQSDELCCKACQGKGFHCKSGVCIPSQYQCNGEVDCITGEDEVGCAGFASVTQEETEILTADMDAERRRIKSLLPKLSCGVKNRMHIRRKRIVGGKRAQLGDLPWQVAIKDASGITCGGIYIGGCWILTAAHCLRASKTHRYQIWTTVVDWIHPDLKRIVIEYVDRIIFHENYNAGTYQNDIALIEMKKDGNKKDCELPRSIPACVPWSPYLFQPNDTCIVSGWGREKDNERVFSLQWGEVKLISNCSKFYGNRFYEKEMECAGTYDGSIDACKGDSGGPLVCMDANNVTYVWGVVSWGENCGKPEFPGVYTKVANYFDWISYHVGRPFISQYNV
amount of CFI needed to cleave 50% of the available C3b (re-analysis, 4-parameter logistic) [2]: The amount of CFI needed to cleave 50% of the available C3b was approximately 632 ng/ml

B2: CFI: Complement factor I protein purchased from Complement Technology Inc (protein)
chain: KVTYTSQEDLVEKKCLAKKYTHLSCDKVFCQPWQRCIEGTCVCKLPYQCPKNGTAVCATNRRSFPTYCQQKSLECLHPGTKFLNNGTCTAEGKFSVSLKHGNTDSEGIVEVKLVDQDKTMFICKSSWSMREANVACLDLGFQQGADTQRRFKLSDLSINSTECLHVHCRGLETSLAECTFTKRRTMGYQDFADVVCYTQKADSPMDDFFQCVNGKYISQMKACDGINDCGDQSDELCCKACQGKGFHCKSGVCIPSQYQCNGEVDCITGEDEVGCAGFASVTQEETEILTADMDAERRRIKSLLPKLSCGVKNRMHIRRKRIVGGKRAQLGDLPWQVAIKDASGITCGGIYIGGCWILTAAHCLRASKTHRYQIWTTVVDWIHPDLKRIVIEYVDRIIFHENYNAGTYQNDIALIEMKKDGNKKDCELPRSIPACVPWSPYLFQPNDTCIVSGWGREKDNERVFSLQWGEVKLISNCSKFYGNRFYEKEMECAGTYDGSIDACKGDSGGPLVCMDANNVTYVWGVVSWGENCGKPEFPGVYTKVANYFDWISYHVGRPFISQYNV
EC50 of CFI (PBS control, no BAM) ([3]; CFI 10 ng/mL to 30 μg/mL, absence of BAM1-42): 0.686 µg/mL | amount of CFI needed to cleave 50% of the available C3b ([3]; no BAM, reanalysis with reparametrized 4-parameter logistic equation): approximately 632 ng/ml

B5: Mouse plasma complement factor I (protein)
chain: RSPSASDLPQEELVDQKCLLQKYTHRSCNKVFCQPWQRCIEGTCICKLPYQCPRAGTPVCAMNGRSYPTYCHQKSFECLHPEIKFSHNGTCAAEGKFNVSLIYGRTKTEGLVQVKLVDQDERMFICKNSWSMAEANVACVDLGFPLGVRDIQGSFNISGNLHINDTECLHVHCRGVETSLAECAFTKRRTELSNGLAGVVCYKQDADFPTSLSFQCVNGKHIPQEKACNGVNDCGDQSDELCCKGCRGNASLCKSGVCIPDQYKCNGEVDCITGEDESRCEEDRQQNIPKGLARSAQGEAEIETEETEMLTPGMDNERKRIKSLLPKLSCGVKRNTHTRRKRVIGGKPANVGDYPWQVAIKDGQRITCGGIYIGGCWILTAAHCVRPSRAHSYQVWTALLDWLKPNSQLGIQTVKRVIVHEKYNGATFQNDIALIEMKMHTGKKECELPNSVPACVPWSPYLFQPNDRCIISGWGRGKDNQKVYSLRWGEVDLIGNCSQFYPDRYYEKEMQCAGTRDGSIDACKGDSGGPLVCEDINNVTYVWGIVSWGENCGKPEFPGVYTRVANYFDWISYHVGRSLVSQHNV
cofactor assay with mouse plasma as source of CFI, human CFH and C3b [2]: mouse plasma CFI indeed can convert human C3b into iC3b in the presence of human CFH albeit with 10-times less activity

Results, then the molecule that gave them:

CFI bioactivity (inverse of EC50 in µg) [1]: 1640 U/µg of CFI | EC50 of CFI in cofactor assay (iC3b generation, 80 CFH and C3b, 1 hr), three experiments [1]: 0.0608 µg/mL | EC50 recombinant to purified ratio [1]: 1.8
Molecule: Recombinant complement factor I (GSK) (from UniProt P05156 19-583) (enzyme)

estimated EC50 of CFI (95% limits in parentheses) [4]: 32.6 (9.3-108.8) ng/ml
B3: purified CFI: CFI purified from serum (CompTech) (protein)
chain: KVTYTSQEDLVEKKCLAKKYTHLSCDKVFCQPWQRCIEGTCVCKLPYQCPKNGTAVCATNRRSFPTYCQQKSLECLHPGTKFLNNGTCTAEGKFSVSLKHGNTDSEGIVEVKLVDQDKTMFICKSSWSMREANVACLDLGFQQGADTQRRFKLSDLSINSTECLHVHCRGLETSLAECTFTKRRTMGYQDFADVVCYTQKADSPMDDFFQCVNGKYISQMKACDGINDCGDQSDELCCKACQGKGFHCKSGVCIPSQYQCNGEVDCITGEDEVGCAGFASVTQEETEILTADMDAERRRIKSLLPKLSCGVKNRMHIRRKRIVGGKRAQLGDLPWQVAIKDASGITCGGIYIGGCWILTAAHCLRASKTHRYQIWTTVVDWIHPDLKRIVIEYVDRIIFHENYNAGTYQNDIALIEMKKDGNKKDCELPRSIPACVPWSPYLFQPNDTCIVSGWGREKDNERVFSLQWGEVKLISNCSKFYGNRFYEKEMECAGTYDGSIDACKGDSGGPLVCMDANNVTYVWGVVSWGENCGKPEFPGVYTKVANYFDWISYHVGRPFISQYNV

EC50 recombinant to purified ratio ([4]; model fitted to data of three experiments, P<0.001 vs 1): 1.8 (1.5-2.2) | times lower bioactivity than material purified from serum ([4]; overall result): approximately 2 times | estimated EC50 of CFI (95% limits in parentheses) [4]: 60.8 (21.6-168.0) ng/ml
B4: recombinant CFI: CFI generated by recombinant means (GSK) (protein)
chain: KVTYTSQEDLVEKKCLAKKYTHLSCDKVFCQPWQRCIEGTCVCKLPYQCPKNGTAVCATNRRSFPTYCQQKSLECLHPGTKFLNNGTCTAEGKFSVSLKHGNTDSEGIVEVKLVDQDKTMFICKSSWSMREANVACLDLGFQQGADTQRRFKLSDLSINSTECLHVHCRGLETSLAECTFTKRRTMGYQDFADVVCYTQKADSPMDDFFQCVNGKYISQMKACDGINDCGDQSDELCCKACQGKGFHCKSGVCIPSQYQCNGEVDCITGEDEVGCAGFASVTQEETEILTADMDAERRRIKSLLPKLSCGVKNRMHIRRKRIVGGKRAQLGDLPWQVAIKDASGITCGGIYIGGCWILTAAHCLRASKTHRYQIWTTVVDWIHPDLKRIVIEYVDRIIFHENYNAGTYQNDIALIEMKKDGNKKDCELPRSIPACVPWSPYLFQPNDTCIVSGWGREKDNERVFSLQWGEVKLISNCSKFYGNRFYEKEMECAGTYDGSIDACKGDSGGPLVCMDANNVTYVWGVVSWGENCGKPEFPGVYTKVANYFDWISYHVGRPFISQYNV
